B2: mouse ribonuclease inhibitor (natural protein, mouse (M. musculus))
chain: MSLDIQCEQLSDARWTELLPLIQQYEVVRLDDCGLTEVRCKDISSAVQANPALTELSLRTNELGDGGVGLVLQGLQNPTCKIQKLSLQNCGLTEAGCGILPGMLRSLSTLRELHLNDNPMGDAGLKLLCEGLQDPQCRLEKLQLEYCNLTATSCEPLASVLRVKADFKELVLSNNDLHEPGVRILCQGLKDSACQLESLKLENCGITAANCKDLCDVVASKASLQELDLSSNKLGNAGIAALCPGLLLPSCKLRTLWLWECDITAEGCKDLCRVLRAKQSLKELSLASNELKDEGARLLCESLLEPGCQLESLWIKTCSLTAASCPYFCSVLTKSRSLLELQMSSNPLGDEGVQELCKALSQPDTVLRELWLGDCDVTNSGCSSLANVLLANRSLRELDLSNNCMGGPGVLQLLESLKQPSCTLQQLVLYDIYWTNEVEEQLRALEEERPSLRIIS
B4: human ribonuclease inhibitor (natural protein, human (H. sapiens))
chain: MSLDIQSLDIQCEELSDARWAELLPLLQQCQVVRLDDCGLTEARCKDISSALRVNPALAELNLRSNELGDVGVHCVLQGLQTPSCKIQKLSLQNCCLTGAGCGVLSSTLRTLPTLQELHLSDNLLGDAGLQLLCEGLLDPQCRLEKLQLEYCSLSAASCEPLASVLRAKPDFKELTVSNNDINEAGVRVLCQGLKDSPCQLEALKLESCGVTSDNCRDLCGIVASKASLRELALGSNKLGDVGMAELCPGLLHPSSRLRTLWIWECGITAKGCGDLCRVLRAKESLKELSLAGNELGDEGARLLCETLLEPGCQLESLWVKSCSFTAACCSHFSSVLAQNRFLLELQISNNRLEDAGVRELCQGLGQPGSVLRVLWLADCDVSDSSCSSLAATLLANHSLRELDLSNNCLGDAGILQLVESVRQPGCLLEQLVLYDIYWSEEMEDRLQALEKDKPSLRVIS

Test [1] has as its target chicken RNase A-1 (chicken (G. gallus)).
Test [2] addresses anole RNase 1 (anole lizard (Anolis carolinensis)).
Test [3] deals with B2. Description: fluorescence dissociation-rate assay.
For test [4], the target named is B4. Description: fluorescence dissociation-rate assay.
Another test addresses T1, mouse RNase 1 (mouse (M. musculus), UniProt P00683 26-149).
T1 sequence (looked up): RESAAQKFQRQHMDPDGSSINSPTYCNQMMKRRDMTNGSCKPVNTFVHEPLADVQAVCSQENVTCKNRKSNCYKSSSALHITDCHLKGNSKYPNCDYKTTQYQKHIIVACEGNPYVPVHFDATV

The target in the next test is T2, human RNase 1 (human, UniProt P07998 29-156).
T2 sequence: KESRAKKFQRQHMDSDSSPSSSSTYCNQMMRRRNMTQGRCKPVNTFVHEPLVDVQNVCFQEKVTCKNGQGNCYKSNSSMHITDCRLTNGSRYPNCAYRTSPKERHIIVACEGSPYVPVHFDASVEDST

The target of a further test is T3, bovine RNase A (bovine, UniProt P61823 27-150).
T3 sequence (looked up): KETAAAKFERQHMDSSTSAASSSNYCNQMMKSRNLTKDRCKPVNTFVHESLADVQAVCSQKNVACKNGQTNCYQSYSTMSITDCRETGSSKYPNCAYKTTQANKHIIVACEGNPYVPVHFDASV

The stoichiometry N is a count of units in the complex or per binding partner. The molecule “chicken ribonuclease inhibitor (natural protein)” yielded a stoichiometry N in test [1] of 1. For “anole ribonuclease inhibitor (natural protein)”, the stoichiometry N in test [2] turned out to be 1.

B1: A19C bovine RNase 1, labeled with diethylfluorescein (DEFIA) (enzyme, UniProt P61823 27-150, looked up)
chain: KETAAAKFERQHMDSSTSCASSSNYCNQMMKSRNLTKDRCKPVNTFVHESLADVQAVCSQKNVACKNGQTNCYQSYSTMSITDCRETGSSKYPNCAYKTTQANKHIIVACEGNPYVPVHFDASV
modifications: diethylfluorescein (DEFIA) on the introduced cysteine 19
Regarding B1, the binding result in test [3] and in test [4] was “binds” throughout.

Regarding B2, in the test with mouse RNase 1, the “stoichiometry N” value was found to be 1.

B3: P19C human RNase 1, labeled with diethylfluorescein (DEFIA) (enzyme, UniProt P07998 29-156, looked up)
chain: KESRAKKFQRQHMDSDSSCSSSSTYCNQMMRRRNMTQGRCKPVNTFVHEPLVDVQNVCFQEKVTCKNGQGNCYKSNSSMHITDCRLTNGSRYPNCAYRTSPKERHIIVACEGSPYVPVHFDASVEDST
modifications: diethylfluorescein (DEFIA) on the introduced cysteine 19
Regarding B3, the binding result in test [3] is listed as “binds”. With B4, in the test with human RNase 1, the “stoichiometry N” value was 1.

B5: bovine ribonuclease inhibitor (natural protein, bovine (B. taurus))
chain: MKLDIQCEQLSDARWTELLPLIQQYEVVRLDDCGLTEVRCKDIGSALQANASLTELSLRTNELGDGGVLLVLQGLQSPTCKIQKLSLQNCCLTEAGCGVLPGVLRSLPTLRELHLSDNPLGDAGLRLLCEGLLDPRCRLEKLQLEYCSLTAASCEPLAAVLRATRDLKELVVSNNDIGEAGVQALCRGLAESACQLETLKLENCGLTAANCKDLCGIVASQASLKDLDLGSNRLGDAGLAELCPGLLSPSSQLRTLWLWECDLTVSGCRELCRVLQAKEALKELSLAGNSLGDEGAQLLCESLLQPGCQLESLWVKSCGFTAACCQHFSSMLTQNKHLLELQLSSNPLGDAGVHVLCQALGQPGTVLRVLWVGDCELTNSSCGGLASLLLASPSLRELDLSNNGLGDPGVLQLLGSLEQPACSLEQLVLYDIYWTEAVDERLRAVEESKPGLRIIS
In the case of B5, in the test with bovine RNase A, the “stoichiometry N” value came out at 1.

B6: S19C mouse RNase 1, labeled with diethylfluorescein (DEFIA) (enzyme, mouse (M. musculus), UniProt P00683 26-149, looked up)
chain: RESAAQKFQRQHMDPDGSCINSPTYCNQMMKRRDMTNGSCKPVNTFVHEPLADVQAVCSQENVTCKNRKSNCYKSSSALHITDCHLKGNSKYPNCDYKTTQYQKHIIVACEGNPYVPVHFDATV
modifications: diethylfluorescein (DEFIA) on the introduced cysteine 19
Take B6: the binding result in test [4] is reported as “binds”.

(Values after publication PMC4219644 (Journal of molecular biology, 2014).)
